B1: NSa1(+10)-A13BeLaK-C1: supercharged NSa1 monobody encoding BeLaK, N-terminal Cys; SEQ. ID. NO: 15 and 23 (protein)
chain 1: MGSSHHHHHHSSGTENLYFQGCVSSKPTKLRVVRXTPTSLKIKWDAPAKTVDYYVITYGETGRGGYAWQRFEVPGSKRTATIKGLKPGVDYTITVYAGYKGYPTYYSSPISINYRT
chain 2: MGSSHHHHHHSSGTENLYFQGCVSSKPTKLRVVRXTPTSLKIKWDAPAKTVDYYVITYGETGRGGYAWQRFEVPGSKRTATIKGLKPGVDYTITVYAGYKGYPTYYSSPISINYRT
modifications: BeLaK at position 13; N-terminal Cys; MOD_RES 35 X is N6-(2-Oxoazetidine-1-carbonyl)-L-lysine
notes: supercharged NSa1 monobody encoding BeLaK, N-terminal Cys; ID; NO: 15 and 23
B2: NSa1(+17)-A13BeLaK-Y92K-C1: supercharged NSa1 monobody encoding BeLaK; SEQ. ID. NO: 20 (protein)
chain: MGSSHHHHHHSSGTENLYFQGCVKSKPTKLRVVRXTPTSLKISWKAPKKTVDYYVITYGKTGSGGYAWQRFRVPGSKRTAKIKGLKPGVDYTITVYAGYKGYPTYYSSPISINKRT
modifications: BeLaK at position 13; N-terminal Cys; MOD_RES 35 X is N6-(2-Oxoazetidine-1-carbonyl)-L-lysine
notes: supercharged NSa1 monobody encoding BeLaK; ID; NO: 20
B3: NSa1(+5)-A13BeLaK-Y92K-C1: supercharged NSa1 monobody encoding BeLaK; SEQ. ID. NO: 9 (protein)
chain: MGSSHHHHHHSSGTENLYFQGCVSSKPTKLRVVRXTPTSLKISWDAPAVTVDYYVITYGEKGSGGYAWQEFEVPGSKRTATISGLKPGVDYTITVYAGYKGYPTYYSSPISINKRT
modifications: BeLaK at position 13; N-terminal Cys; MOD_RES 35 X is N6-(2-Oxoazetidine-1-carbonyl)-L-lysine
notes: supercharged NSa1 monobody encoding BeLaK; ID; NO: 9
B4: NSa1(+10)-A13BeLaK-Y92K-C1: supercharged NSa1 monobody encoding BeLaK; SEQ. ID. NO: 16 (protein)
chain: MGSSHHHHHHSSGTENLYFQGCVSSKPTKLRVVRXTPTSLKIKWDAPAKTVDYYVITYGETGRGGYAWQRFEVPGSKRTATIKGLKPGVDYTITVYAGYKGYPTYYSSPISINKRT
modifications: BeLaK at position 13; N-terminal Cys; MOD_RES 35 X is N6-(2-Oxoazetidine-1-carbonyl)-L-lysine
notes: supercharged NSa1 monobody encoding BeLaK; ID; NO: 16
B5: NSa1(+7)-A13BeLaK-Y92K-C1: supercharged NSa1 monobody encoding BeLaK; SEQ. ID. NO: 12 (protein)
chain: MGSSHHHHHHSSGTENLYFQGCVSSKPTKLRVVRXTPTSLKIKWDAPAVTVDYYVITYGEKGRGGYAWQEFEVPGSKRTATISGLKPGVDYTITVYAGYKGYPTYYSSPISINKRT
modifications: BeLaK at position 13; N-terminal Cys; MOD_RES 35 X is N6-(2-Oxoazetidine-1-carbonyl)-L-lysine
notes: supercharged NSa1 monobody encoding BeLaK; ID; NO: 12
B6: NSa1(+10)-A13BeLaK-C95: supercharged NSa1 monobody encoding BeLaK, C-terminal Cys; SEQ. ID. NO: 22 (protein)
chain: MGSSHHHHHHSSGTENLYFQGVSSKPTKLRVVRXTPTSLKIKWDAPAKTVDYYVITYGETGRGGYAWQRFEVPGSKRTATIKGLKPGVDYTITVYAGYKGYPTYYSSPISINYRTC
modifications: BeLaK at position 13; C-terminal Cys; MOD_RES 34 X is N6-(2-Oxoazetidine-1-carbonyl)-L-lysine
notes: supercharged NSa1 monobody encoding BeLaK, C-terminal Cys; ID; NO: 22
B7: 12VC1(+8)-A13BeLaK-Y92K: monobody 12VC1(+8) encoding BeLaK; SEQ. ID. NO: 2 (protein)
chain: MGSSHHHHHHSSGTENLYFQGVSSVPTKLKVVAXTPTSLLISWDAPAVTVFFYVITYGETGHGVGAFKAFKVPGSKSTATISGLKPGVDYTITVYARGYSKKGPYKPSPISINKRT
modifications: BeLaK non-natural residue at position 13; VARIANT 34 X is Ne-(tert-butoxycarbonyl) lysine or N6-(2-Oxoazetidine-1-carbonyl)-L-lysine
notes: monobody 12VC1(+8) encoding BeLaK; ID; NO: 2
B8: 12VC1(+10)-A13BeLaK-Y92K: monobody 12VC1(+10) encoding BeLaK; SEQ. ID. NO: 3 (protein)
chain: MGSSHHHHHHSSGTENLYFQGVSKVPTKLEVVAXTPTSLLIKWDAPAVTVKFYVITYGEKGHGVGAFQAFKVPGSKRTATIKGLKPGVDYTITVYARGYSKQGPYKPSPISINKRT
modifications: BeLaK non-natural residue at position 13; VARIANT 34 X is Ne-(tert-butoxycarbonyl) lysine or N6-(2-Oxoazetidine-1-carbonyl)-L-lysine
notes: monobody 12VC1(+10) encoding BeLaK; ID; NO: 3
B9: NSa1(+17)-A13BeLaK: supercharged NSa1 monobody encoding BeLaK; SEQ. ID. NO: 18 (protein)
chain: MGSSHHHHHHSSGTENLYFQGVKSKPTKLRVVRXTPTSLKISWKAPKKTVDYYVITYGKTGSGGYAWQRFRVPGSKRTAKIKGLKPGVDYTITVYAGYKGYPTYYSSPISINYRT
modifications: BeLaK non-natural residue at position 13; MOD_RES 34 X is N6-(2-Oxoazetidine-1-carbonyl)-L-lysine
notes: supercharged NSa1 monobody encoding BeLaK; ID; NO: 18
B10: NSa1(+17)-A13BeLaK-Y92K: supercharged NSa1 monobody encoding BeLaK; SEQ. ID. NO: 19 (protein)
chain: MGSSHHHHHHSSGTENLYFQGVKSKPTKLRVVRXTPTSLKISWKAPKKTVDYYVITYGKTGSGGYAWQRFRVPGSKRTAKIKGLKPGVDYTITVYAGYKGYPTYYSSPISINKRT
modifications: BeLaK non-natural residue at position 13; MOD_RES 34 X is N6-(2-Oxoazetidine-1-carbonyl)-L-lysine
notes: supercharged NSa1 monobody encoding BeLaK; ID; NO: 19
B11: NSa1(+7)-A13BeLaK: supercharged NSa1 monobody encoding BeLaK; SEQ. ID. NO: 11 (protein)
chain: MGSSHHHHHHSSGTENLYFQGVSSKPTKLRVVRXTPTSLKIKWDAPAVTVDYYVITYGEKGRGGYAWQEFEVPGSKRTATISGLKPGVDYTITVYAGYKGYPTYYSSPISINYRT
modifications: BeLaK non-natural residue at position 13; MOD_RES 34 X is N6-(2-Oxoazetidine-1-carbonyl)-L-lysine
notes: supercharged NSa1 monobody encoding BeLaK; ID; NO: 11
B12: NSa1(+10)-A13BeLaK: supercharged NSa1 monobody encoding BeLaK; SEQ. ID. NO: 14 (protein)
chain: MGSSHHHHHHSSGTENLYFQGVSSKPTKLRVVRXTPTSLKIKWDAPAKTVDYYVITYGETGRGGYAWQRFEVPGSKRTATIKGLKPGVDYTITVYAGYKGYPTYYSSPISINYRT
modifications: BeLaK non-natural residue at position 13; MOD_RES 34 X is N6-(2-Oxoazetidine-1-carbonyl)-L-lysine
notes: supercharged NSa1 monobody encoding BeLaK; ID; NO: 14
B13: NSa1(+5)-A13BeLaK-Y92K: supercharged NSa1 monobody encoding BeLaK; SEQ. ID. NO: 7 (protein)
chain: MGSSHHHHHHSSGTENLYFQGVSSKPTKLRVVRXTPTSLKISWDAPAVTVDYYVITYGEKGSGGYAWQEFEVPGSKRTATISGLKPGVDYTITVYAGYKGYPTYYSSPISINKRT
modifications: BeLaK non-natural residue at position 13; MOD_RES 34 X is N6-(2-Oxoazetidine-1-carbonyl)-L-lysine
notes: supercharged NSa1 monobody encoding BeLaK; ID; NO: 7

Test: Intramolecular (inter-strand) crosslinking yield of nanobody/monobodies by mass spectrometry
Conditions: UAA-encoded monobodies, MS characterization (Table 5)
From the text: To probe whether CATK-1 is suitable for inter-strand cross-linking in proteins containing the disulfide bond, we selected a small protein called nanobody NB1, a prototypical single-chain VHH antibody that binds specifically to GFP protein. Based on NB1 structure, there is one disulfide bond formed between Cys-24 and Cys-98, close to a proposed orthogonal crosslinking site at Val-4 and Tyr-106 (FIG. 5a, left). To test orthogonal crosslinking, we placed CATK-1 at Val-4 position to target Tyr-106 located 5.6 Å away on the opposing strand. The BocK- and CATK-1-encoded NB1 were successfully expressed at yields of 14.3 mg L^−1 and 3.5 mg L^−1, respectively (FIG. 5b, left). […] Separately, we also examined the utility of CATK-1 in effecting intramolecular crosslinking in an antibody mimic called monobody. Due to their lack of cysteine residues, small size (˜10 kDa), and evolvable binding affinity and specificity, monobodies represent an ideal protein scaffold for targeting protein-protein interactions in the cytosols of mammalian cells. However, monobodies are cell impermeable, severely limiting their potential. One strategy to potentially overcome this limitation is to combine protein surface supercharging with orthogonal crosslinking to increase stability in the endosomes and thus improve cytosolic delivery. To this end, we designed an overall +10 charged monobody NSa1, termed NSa1(+10), using the Supercharge protocol on ROSIE Rosetta Online Server and added an amber codon at Ala-13 position. Based on the NSa1 structure, A13CATK-1 is well-positioned to react with the proximal Tyr-92 on the opposing strand at C-terminus (FIG. 5a, right). Accordingly, the wild-type and NSa1(+10) mutant proteins encoding CATK-1 or BocK were expressed and purified in good yields (4.1-6.9 mg L^1; FIG. 5b, right). […] The crosslink-containing fragment was identified by LC/MS after trypsin digestion (FIG. 21).
To assess if BeLaK is suitable for orthogonal crosslinking of domain antibodies, we selected NSa1, a monobody-based SHP2 inhibitor, and placed BeLaK at position-13 of the N-terminal β-strand. A panel of supercharged NSa1 mutants carrying overall charges of +6, +8, +11, and +18, respectively, were designed using Supercharge protocol on ROSIE Rosetta Online Server with native NSa1 (˜2 charge) as a template. […] Thus, the supercharged monobodies encoding either BeLaK or BocK were expressed in good yields (2.2˜7.2 mg L^−1; FIG. 42). […] Furthermore, as the positive charge increases, the mobility decreases, likely due to reduced overall negative charge after association with the SDS molecules. MS analysis further confirmed the identities of the supercharged NSa1 mutants (FIG. 34c). Since the unreacted BeLaK-encoded monobodies share the same mass as the crosslinked ones, we treated the purified monobodies with excess β-mercapto-ethanol for 7 days, which accelerates the hydrolysis of the unreacted β-lactam and in turn adds +18 Da to protein mass, and monitored the intact mass change. Using this method, we determined orthogonal crosslinking yields to range from 5% for native NSa1 to more than 50% for +8/+11/+18 mutants (FIG. 42). We attribute the higher yields to the increased conformational dynamics, which promotes proximity-driven crosslinking reactions. The crosslinking sites in +11 and +18 mutants were mapped to Lys-21 and Lys-19, respectively, residues on the nearby β-strand, based on the identified fragment masses after trypsin digestion (FIG. 34d, FIG. 50).
Crosslinking yield determination of BeLaK-encoded NSa1 variants. To quantify the extent of crosslinking, β-mercaptoethanol (20 mM) was added at a final concentration of 2.58 mM (100 equiv, 3 μL) to a solution of purified NSa1 variants (25 μM, 30 μL) in elution buffer (50 mM Na2HPO4, pH=7.4, 300 mM NaCl, 250 mM imidazole). The mixture was incubated at 37° C. overnight. Afterwards, the mixture was removed from the incubator and allowed to incubate at 25° C. for 1 week.
With B1 the X-linking yield was 97%.
B2 gave a X-linking yield of 87%.
Work on B3 yielded a X-linking yield of 25%.
B4 showed a X-linking yield of 100%.
For B5, the X-linking yield was 60%.
For B6, the X-linking yield was 22%.
Molecule B7 has a X-linking yield of 86%.
Molecule B8 has a X-linking yield of 83%.
In the case of B9, the X-linking yield is reported as 87%.
B10 showed a X-linking yield of 89%.
In the case of B11, the X-linking yield is reported as 61%.
With B12 the X-linking yield was 86%.
For B13, the X-linking yield was 53%.
